Sequences and labels used below:
B1: anti-TIM-3 antibody clone G6 (antibody, V domains shown)
VH: QVQLQESGPGLVKPSGTLSLTCAVSGGSISSSNWWSWVRQPPGKGLEWIGEIYHSGSTNYNPSLKSRVTISVDKSKNQFSLKLSSVTAADTAVYYCARVVAVAGTVDYWGQGTLVTVSS
VL: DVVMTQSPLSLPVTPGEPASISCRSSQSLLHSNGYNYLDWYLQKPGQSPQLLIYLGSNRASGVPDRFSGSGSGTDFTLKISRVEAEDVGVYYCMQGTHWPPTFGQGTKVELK
B2: anti-TIM-3 antibody clone G7 (antibody, V domains shown)
VH: EVQLVQSGAEVKKPGASVKVSCKASGYTFTSYYMHWVRQAPGQGLEWMGIINPSGGSTSYAQKFQGRVTMTRDTSTSTVYMELSSLRSEDTAVYYCARDQYSSGWYYYGMDVWGQGTTVTVSS
VL: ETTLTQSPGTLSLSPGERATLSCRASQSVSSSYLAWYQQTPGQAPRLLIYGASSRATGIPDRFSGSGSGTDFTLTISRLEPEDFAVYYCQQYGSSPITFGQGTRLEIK
B3: anti-TIM-3 antibody clone G9 (antibody, V domains shown)
VH: B2 VH with E1Q, V5Q, Q100L, S103Y, W105F
VL: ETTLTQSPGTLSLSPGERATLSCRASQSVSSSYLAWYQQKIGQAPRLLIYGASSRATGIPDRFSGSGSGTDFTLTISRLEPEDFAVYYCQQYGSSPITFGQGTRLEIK
B4: anti-TIM-3 antibody clone B10 (antibody, V domains shown)
VH: QVQLQESGPGLVKASETLSLTCTVSGGSIGSSDYYWGWIRQPPGKGLEWIGSIYYSGSTYYNPSLKSRVTMSVDTPNNQFSLKLSSVTAADTAVYYCARGEHRGEFDYWGQGTLVTVSS
VL: EIVLTQSPATLSFSPGERATLSCRASQSVGSYLAWYQQRPGQAPRPLIYDATNRATGIPTRFSGSGSGTDFTLTISSLEPEDFATYYCQHRRTFGRGTKLEIK
B5: anti-TIM-3 antibody clone A3 (antibody, V domains shown)
VH: QVQLVQSGAEVKKPGASVKVSCKASGYTFTSYYMHWVRQAPGQGLEWMGIINPSGGSTSYAQKFQGRVTMTRDTSTSTVYMELSSLRSEDTAVYYCARSPGVVTALFDYWGQGTLVTVSS
VL: DIQMTQSPSFMSASVGDRVTITCRASQDIGSYLAWYQQKPGKAPKLLIYAASTLQSGVPSRFSGSGSGTDFTLTINSLQPEDFATYYCQQSYSSPPTFGPGTTLEIK
B6: anti-TIM-3 antibody clone A11 (antibody, V domains shown)
VH: QVQLQQWGAGLLKPSETLSLTCAVYGGSFSGYYWSWIRQPPGKGLEWIGEINHSGSTNYNPSLKSRVTISVDTSKNQFSLKLSSVTAADTAVYYCARGYVAGFDYWGQGTLVTVSS
VL: QSVVTQPPSVSAAPGQKVTISCSGSSSNIGNNYVSWYQQLPGTAPKLLIYGNNWRPSGIPDRFSGSKSGTSATLAISGLQTGDEADYYCETWDSSLSAGVFGGGTKLTVL

Changes are numbered by the printed parent chain.

For one experiment, the target named is T1, human TIM-3 coupled to human Fc (human, UniProt Q8TDQ0 22-200). Put plainly: SPR. (Surface plasmon resonance follows binding to a sensor surface in real time, without labels.)
On to B1, for which binding was put at a Kd of 2.52 nM. In other words, the single-digit nanomolar range.

Regarding B2, the Kd came out at 0.62 nM.

With B3, the Kd amounted to 0.63 nM.

On to B4, for which the Kd was 0.26 nM.

As to B5, the Kd was found to be 0.44 nM.

In the next experiment the target is T1, human TIM-3 coupled to human Fc. Put plainly: SPR. This is another data set of the same source.
Molecule B6 yielded a Kd of 1.26 nM.

The term Kd denotes a measure of binding affinity in units of concentration. A lower Kd goes with a tighter complex.
